Experimental findings from the Immune Epitope Database (IEDB) are described below.

Some results are limits rather than exact numbers.

The target in experiment [1] is HLA-B*58:01. Kind of experiment: IEDB peptide-MHC binding, purified MHC/competitive/radioactivity; filed as Kd, often an IC50 or EC50 that approximates it; ≥ and ≤ were set here for values at or beyond the usual limits of such assays.
Experiment [2] addresses HLA-A*32:01. The experiment is described as above.
Experiment [3] has as its target HLA-C*05:01. Kind of experiment: IEDB peptide-MHC binding, purified MHC/direct/fluorescence; filed as Kd, often an IC50 or EC50 that approximates it; ≥ and ≤ were set here for values at or beyond the usual limits of such assays. The conditions noted are these: source organism: Homo sapiens.
Experiment [4] has as its target HLA-B*57:01. Kind of experiment: IEDB peptide-MHC binding, purified MHC/competitive/radioactivity; filed as Kd, often an IC50 or EC50 that approximates it; ≥ and ≤ were set here for values at or beyond the usual limits of such assays.
The target in experiment [5] is HLA-A*31:01. The description is as above. The conditions noted are these: source organism: Dengue virus 3 Martinique/1243/1999.
For experiment [6], the target named is HLA-B*15:17. Kind of experiment: IEDB peptide-MHC binding, purified MHC/direct/fluorescence; filed as Kd, often an IC50 or EC50 that approximates it; ≥ and ≤ were set here for values at or beyond the usual limits of such assays. The conditions noted are these: source organism: Shigella sonnei Ss046.
For experiment [7], the target named is HLA-B*58:01. Described as above. To be noted: source organism: Shigella sonnei Ss046.
In experiment [8] the target is HLA-B*07:02. The description is as above. The conditions noted are these: source organism: Shigella sonnei Ss046.
Experiment [9] deals with HLA-B*40:01. The description is as above. To be noted: source organism: Shigella sonnei Ss046.
Experiment [10] concerns the target HLA-A*68:02. The experiment is described as above.
Experiment [11] addresses HLA-B*27:05. The description is as above. The conditions noted are these: source organism: Shigella sonnei Ss046.
Experiment [12] concerns the target HLA-A*11:01. Described as above. The conditions noted are these: source organism: Shigella sonnei Ss046.
Experiment [13] has as its target HLA-A*03:01. Described as above.
The target of experiment [14] is HLA-B*46:01. The experiment is described as above. The conditions noted are these: source organism: Shigella sonnei Ss046.
Experiment [15] addresses HLA-A*31:01. Described as above. To be noted: source organism: Shigella sonnei Ss046.
The target of experiment [16] is HLA-B*15:01. The description is as above. The conditions noted are these: source organism: Shigella sonnei Ss046.
The target in experiment [17] is HLA-B*57:01. The description is as above.
Experiment [18] addresses HLA-A*02:01. Described as above. The conditions noted are these: source organism: Shigella sonnei Ss046.
The target in experiment [19] is HLA-B*18:01. Described as above. The conditions noted are these: source organism: Shigella sonnei Ss046.
Experiment [20] deals with HLA-B*48:01. The description is as above. The conditions noted are these: source organism: Shigella sonnei Ss046.
In experiment [21] the target is HLA-A*01:01. In words: IEDB peptide-MHC binding, purified MHC/competitive/fluorescence; filed as Kd, often an IC50 or EC50 that approximates it; ≥ and ≤ were set here for values at or beyond the usual limits of such assays. The conditions noted are these: source organism: Paraglaciecola sp. T6c.
Experiment [22] deals with HLA-B*58:01. The experiment is described as above.
In experiment [23] the target is HLA-B*46:01. Described as above.
For experiment [24], the target named is HLA-A*30:02. Kind of experiment: IEDB peptide-MHC binding, purified MHC/competitive/radioactivity; filed as Kd, often an IC50 or EC50 that approximates it; ≥ and ≤ were set here for values at or beyond the usual limits of such assays. The conditions noted are these: source organism: Dengue virus 2 Jamaica/1409/1983.
The target in experiment [25] is HLA-A*26:01. The description is as above. The conditions noted are these: source organism: Dengue virus 2 Jamaica/1409/1983.
Experiment [26] has as its target HLA-A*01:01. Described as above. The conditions noted are these: source organism: Dengue virus 2 Jamaica/1409/1983.
In experiment [27] the target is HLA-A*02:16. Kind of experiment: IEDB peptide-MHC binding, purified MHC/direct/fluorescence; filed as Kd, often an IC50 or EC50 that approximates it; ≥ and ≤ were set here for values at or beyond the usual limits of such assays. To be noted: source organism: Choclo virus.
Experiment [28] addresses HLA-A*02:12. The description is as above. The conditions noted are these: source organism: Choclo virus.
In experiment [29] the target is HLA-A*02:19. The experiment is described as above. The conditions noted are these: source organism: Choclo virus.
Experiment [30] concerns the target HLA-B*39:01. In words: IEDB peptide-MHC binding, purified MHC/competitive/fluorescence; filed as Kd, often an IC50 or EC50 that approximates it; ≥ and ≤ were set here for values at or beyond the usual limits of such assays.
Experiment [31] addresses HLA-B*51:01. Described as above.
Experiment [32] has as its target HLA-A*26:01. Described as above.
In experiment [33] the target is HLA-B*15:01. The description is as above. The conditions noted are these: source organism: Orthohantavirus sinnombreense.
The target in experiment [34] is HLA-B*27:03. Described as above.
Experiment [35] has as its target HLA-A*02:01. Described as above. The conditions noted are these: source organism: Orthohantavirus sinnombreense.
The target of experiment [36] is HLA-A*69:01. The experiment is described as above. The conditions noted are these: source organism: Orthohantavirus sinnombreense.
Experiment [37] concerns the target HLA-B*18:01. Described as above.
Experiment [38] has as its target HLA-A*68:02. The description is as above. The conditions noted are these: source organism: Vibrio cholerae 2740-80.
In experiment [39] the target is HLA-A*03:01. Described as above. To be noted: source organism: Vibrio cholerae 2740-80.
Experiment [40] has as its target HLA-A*02:12. Described as above. To be noted: source organism: Vibrio cholerae 2740-80.
Experiment [41] deals with HLA-A*02:19. The experiment is described as above. The conditions noted are these: source organism: Vibrio cholerae 2740-80.
Where [42] appears, read: source organism: Dengue virus 1 Brazil/97-11/1997.
[43] abbreviates: source organism: Dengue virus 2 Jamaica/1409/1983.
The mark [44] stands for this setting: source organism: Dengue virus 3 Martinique/1243/1999.
Setting [45] is: source organism: Shigella sonnei Ss046.
[46] abbreviates: source organism: Dengue virus 1 Singapore/S275/1990.
Where [47] appears, read: source organism: Francisella tularensis subsp. tularensis FSC198.
[48] abbreviates: source organism: Orthohantavirus sinnombreense.
Where [49] appears, read: source organism: Vibrio cholerae 2740-80.

For the sequence KSWPLNEGI, the figures for the Kd in [1] (setting [42]) and in [2] (setting [42]) were 70.3 nM and 340 nM, respectively.

With KTVWFVPSI, the dissociation constant Kd (usually the free concentration of one partner at which half of the binding sites on the other are occupied at equilibrium, for simple one-to-one binding) was found to be 4.32 nM in [1] (setting [43]) and 6.69 nM in [2] (setting [43]).

Consider RAQDPPPEL, for which the Kd in [3] is 663 nM.

For NASDRMGMGV, the Kd turned out to be 209 nM in experiment [1] (setting [44]) and 722 nM in experiment [4] (setting [44]).

In the case of AASAAQRRGR, the Kd in experiment [1] (setting [44]) worked out at 18.7 nM; in experiment [5] it was 165 nM.

On to VSSVNMISRM, for which the Kd in experiment [1] (setting [43]) was 698 nM; in experiment [4] (setting [43]) it was 626 nM.

In the case of VLDMGDPVK, the Kd in [6], in experiment [7], in experiment [8], in experiment [9], in experiment [10] (setting [45]) and in experiment [11] was no less than 20000 nM in each case. For the same sequence, the Kd in experiment [12] is 7000 nM; in experiment [13] (setting [45]) it was 2090 nM; in experiment [14] it was no less than 20000 nM; in experiment [15] it was no less than 20000 nM; in experiment [16], no less than 20000 nM; in experiment [17] (setting [45]), no less than 20000 nM. Further, the equilibrium dissociation constant (Kd) is no less than 20000 nM in experiment [18], no less than 20000 nM in [19], no less than 20000 nM in experiment [20] and 2590 nM in [21].

LSAAIGKAW: the dissociation constant Kd in experiment [1] (setting [46]) turned out to be 2.92 nM; in [4] (setting [46]) it was 1.9 nM.

For the sequence ISTHIGFSF, the Kd in experiment [17] (source organism: Francisella tularensis subsp. holarctica LVS) is 125 nM; in experiment [22] (setting [47]), 1.5 nM; in experiment [23] (setting [47]), no less than 20000 nM.

As to ITASILLWY, the Kd amounted to 550 nM in experiment [24], 2.8 nM in experiment [1] (setting [43]), 5.66 nM in [25] and 47.2 nM in experiment [26].

Regarding GSFRKICGF, the dissociation constant (Kd) in experiment [10] (source organism: Choclo virus), in [13] (source organism: Choclo virus), in experiment [27], in [28], in experiment [29] and in [30] (setting [48]) was no less than 20000 nM each time. For the same sequence, the Kd in [22] (setting [48]) is 251 nM; in experiment [31] (setting [48]), no less than 20000 nM; in experiment [32] (setting [48]), no less than 20000 nM; in experiment [23] (setting [48]), no less than 20000 nM; in experiment [33] it was no less than 20000 nM; in experiment [34] (setting [48]), no less than 20000 nM. The equilibrium dissociation constant (Kd) in [35], in experiment [36] and in experiment [37] (setting [48]) was no less than 20000 nM in each case.

For the sequence KQLPPLAAW, the Kd in experiment [30] (setting [49]), in experiment [31] (setting [49]), in experiment [32] (setting [49]), in experiment [38], in experiment [39] and in experiment [23] (setting [49]) was no less than 20000 nM each time. Further, the Kd was no less than 20000 nM in [34] (setting [49]), no less than 20000 nM in [40], 6330 nM in experiment [37] (setting [49]) and no less than 20000 nM in experiment [41].

Take QSSITEAELT: the Kd in [1] (setting [43]) came to 436 nM; in experiment [4] (setting [43]) it was 351 nM.

As for ATLLVWHTW, the Kd in [1] (setting [44]) came out at 1.69 nM; in experiment [2] (setting [44]) it was 2.68 nM; in experiment [4] (setting [44]), 2.1 nM.

With GVLIGGLEW, in experiment [22] (source organism: Influenza A virus (A/parakeet/Narita/92A/98(H9N2))), the Kd is 552 nM.

Regarding KSLIISFAF, the Kd in experiment [22] (source organism: Bacillus anthracis str. A0488) amounted to 391 nM.
